Measurements taken from US20110311522A1.

What was measured:
[1] = target: phage peptides (screening product screened with 8G9 from twelve-peptide library)
[2] = target: 14 strains of non-H5 viruses (H1~H13, Chicken NDV); assay: cell-based or functional assay
[3] = target: H5 virus strain (fifteen strains of H5N1 viruses); assay: cell-based or functional assay
[4] = target: hemagglutinin (HA) of H5N1 virus strain FJ1.5 (H5N1 avian influenza virus, strain FJ1.5); assay: cell-based or functional assay
[5] = target: hemagglutinin (HA) of H5N1 virus strain GD1.1 (H5N1 avian influenza virus, strain GD1.1); assay: cell-based or functional assay
[6] = target: hemagglutinin (HA) of H5N1 virus strain GD3.1 (H5N1 avian influenza virus, strain GD3.1); assay: cell-based or functional assay
[7] = target: hemagglutinin (HA) of H5N1 virus strain GD4.1 (H5N1 avian influenza virus, strain GD4.1); assay: cell-based or functional assay
[8] = target: hemagglutinin (HA) of H5N1 virus strain HN3.1 (H5N1 avian influenza virus, strain HN3.1); assay: cell-based or functional assay
[9] = target: hemagglutinin (HA) of H5N1 virus strain IDN1.1 (H5N1 avian influenza virus, strain IDN1.1); assay: cell-based or functional assay
[10] = target: hemagglutinin (HA) of H5N1 virus strain IDN3.1 (H5N1 avian influenza virus, strain IDN3.1); assay: cell-based or functional assay
[11] = target: hemagglutinin (HA) of H5N1 virus strain IDN6.1 (H5N1 avian influenza virus, strain IDN6.1); assay: cell-based or functional assay
[12] = target: hemagglutinin (HA) of H5N1 virus strain IDN8.1 (H5N1 avian influenza virus, strain IDN8.1); assay: cell-based or functional assay
[13] = target: hemagglutinin (HA) of H5N1 virus strain Mixed1.1 (H5N1 avian influenza virus, strain Mixed1.1); assay: cell-based or functional assay
[14] = target: hemagglutinin (HA) of H5N1 virus strain QH1.1 (H5N1 avian influenza virus, strain QH1.1); assay: cell-based or functional assay
[15] = target: hemagglutinin (HA) of H5N1 virus strain VNM2-2.1 (H5N1 avian influenza virus, strain VNM2-2.1); assay: cell-based or functional assay
[16] = target: hemagglutinin (HA) of H5N1 virus strain VTM1.1 (H5N1 avian influenza virus, strain VTM1.1); assay: cell-based or functional assay
[17] = target: hemagglutinin (HA) of H5N1 virus strain VTM4.1 (H5N1 avian influenza virus, strain VTM4.1); assay: cell-based or functional assay
[18] = target: hemagglutinin (HA) of H5N1 virus strain YN2.1 (H5N1 avian influenza virus, strain YN2.1); assay: cell-based or functional assay
[19] = target: hemagglutinin (HA) of H5N1 virus strain A1 (H5N1 avian influenza virus, strain A1); assay: cell-based or functional assay
[20] = target: hemagglutinin (HA) of H5N1 virus strain A2 (H5N1 avian influenza virus, strain A2); assay: cell-based or functional assay
[21] = target: hemagglutinin (HA) of H5N1 virus strain A3 (H5N1 avian influenza virus, strain A3); assay: cell-based or functional assay
[22] = target: hemagglutinin (HA) of H5N1 virus strain A6 (H5N1 avian influenza virus, strain A6); assay: cell-based or functional assay
[23] = target: hemagglutinin (HA) of H5N1 virus strain A7 (H5N1 avian influenza virus, strain A7); assay: cell-based or functional assay
[24] = target: hemagglutinin (HA) of H5N1 virus strain A8 (H5N1 avian influenza virus, strain A8); assay: cell-based or functional assay
[25] = target: hemagglutinin (HA) of H5N1 virus strain B1 (H5N1 avian influenza virus, strain B1); assay: cell-based or functional assay
[26] = target: hemagglutinin (HA) of H5N1 virus strain B3 (H5N1 avian influenza virus, strain B3); assay: cell-based or functional assay
[27] = target: hemagglutinin (HA) of H5N1 virus strain B4 (H5N1 avian influenza virus, strain B4); assay: cell-based or functional assay
[28] = target: hemagglutinin (HA) of H5N1 virus strain B6 (H5N1 avian influenza virus, strain B6); assay: cell-based or functional assay
[29] = target: hemagglutinin (HA) of H5N1 virus strain B7 (H5N1 avian influenza virus, strain B7); assay: cell-based or functional assay
[30] = target: hemagglutinin (HA) of H5N1 virus strain B8 (H5N1 avian influenza virus, strain B8); assay: cell-based or functional assay
[31] = target: hemagglutinin (HA) of H5N1 virus strain C2 (H5N1 avian influenza virus, strain C2); assay: cell-based or functional assay
[32] = target: hemagglutinin (HA) of H5N1 virus strain C3 (H5N1 avian influenza virus, strain C3); assay: cell-based or functional assay
[33] = target: hemagglutinin (HA) of H5N1 virus strain D1 (H5N1 avian influenza virus, strain D1); assay: cell-based or functional assay
[34] = target: hemagglutinin (HA) of H5N1 virus strain D2 (H5N1 avian influenza virus, strain D2); assay: cell-based or functional assay
[35] = target: hemagglutinin (HA) of H5N1 virus strain D3 (H5N1 avian influenza virus, strain D3); assay: cell-based or functional assay
[36] = target: hemagglutinin (HA) of H5N1 virus strain E1 (H5N1 avian influenza virus, strain E1); assay: cell-based or functional assay
[37] = target: hemagglutinin (HA) of H5N1 virus strain E2 (H5N1 avian influenza virus, strain E2); assay: cell-based or functional assay
[38] = target: hemagglutinin (HA) of H5N1 virus strain F2 (H5N1 avian influenza virus, strain F2); assay: cell-based or functional assay
[39] = target: hemagglutinin (HA) of H5N1 virus strain F3 (H5N1 avian influenza virus, strain F3); assay: cell-based or functional assay
[40] = target: hemagglutinin (HA) of H5N1 virus strain F4 (H5N1 avian influenza virus, strain F4); assay: cell-based or functional assay
[41] = target: hemagglutinin (HA) of H5N1 virus strain G1 (H5N1 avian influenza virus, strain G1); assay: cell-based or functional assay
[42] = target: hemagglutinin (HA) of H5N1 virus strain H2 (H5N1 avian influenza virus, strain H2); assay: cell-based or functional assay

B1: monoclonal antibody 8G9 (antibody, V domains shown)
VH: QVQLQQPGVELVRPGASVKLSCKASGYTFTSFWMNWVKQRPDQGLEWIGRIDPYDSETHYNQKFKDKAILTVDKSSSTAYMQLSSLTSEDSAVYYCGRGIATLMVLPDYWGQGTSVTVSS
VL: DILMTQSPSSMSVSLGDTVSITCHASQDISSNMGWLQQKPGKSLKGLIYHGTNLEDGVPSRFSGSGSGPDYSLTISSLESEDFADYYCVQYIQFPWTFGGGTKLEIKR
- OD value relative to that of the control antibodies [1]: > 3 fold
- Positive number/total virus number, hemagglutination inhibition assay (of 14 virus strains positive) [2]: 0
- Positive number/total virus number, hemagglutination inhibition assay (of 15 virus strains positive) [3]: 15
- Hamaglutinin inhibition titer [4]: 12800 titer
- Neutralization titer [4]: 12800 titer
- Hamaglutinin inhibition titer [5]: 12800 titer
- Neutralization titer [5]: 12800 titer
- Hamaglutinin inhibition titer [6]: 12800 titer
- Neutralization titer [6]: 12800 titer
- Hamaglutinin inhibition titer [7]: 12800 titer
- Neutralization titer [7]: 12800 titer
- Hamaglutinin inhibition titer [8]: 12800 titer
- Neutralization titer [8]: 12800 titer
- Hamaglutinin inhibition titer [9]: 12800 titer
- Neutralization titer [9]: 12800 titer
- Hamaglutinin inhibition titer [10]: 12800 titer
- Neutralization titer [10]: 12800 titer
- Hamaglutinin inhibition titer [11]: 12800 titer
- Neutralization titer [11]: 12800 titer
- Hamaglutinin inhibition titer [12]: 12800 titer
- Neutralization titer [12]: 12800 titer
- Hamaglutinin inhibition titer [13]: 12800 titer
- Neutralization titer [13]: 12800 titer
- Hamaglutinin inhibition titer [14]: 12800 titer
- Neutralization titer [14]: 12800 titer
- Hamaglutinin inhibition titer [15]: 12800 titer
- Neutralization titer [15]: 12800 titer
- Hamaglutinin inhibition titer [16]: 12800 titer
- Neutralization titer [16]: 12800 titer
- Hamaglutinin inhibition titer [17]: 12800 titer
- Neutralization titer [17]: 12800 titer
- Hamaglutinin inhibition titer [18]: 12800 titer
- Neutralization titer [18]: 12800 titer

B2: monoclonal antibody 13D4 (antibody, V domains shown)
VH: QVQLQQSGAELMKPGASVKISCKATGYTFSGHWIEWVKQRPGHGLEWIGEILPGSGNIHYNEKFKGKATFAADTSSNTAYMQLSSLTSEDSAVYYCARLGTTAVERDWYFDVWGQGTTVTESL
VL: DIVMTQSQKFMSASVGDRVSVTCKASQNVGTHLAWYQQKPGQSPKALIYSASYRYSGVPDRFTGSGSGTDFTLTISNVQSGDLADYFCQQYNNFPLTFGAGTKLEIKR
- Positive number/total virus number, hemagglutination inhibition assay (of 14 virus strains positive) [2]: 0
- Positive number/total virus number, hemagglutination inhibition assay (of 15 virus strains positive) [3]: 15
- HI titer (hemagglutinin inhibition assay) (n (HI titer = 2^n)) [19]: > 8
- HI titer (hemagglutinin inhibition assay) (n (HI titer = 2^n)) [20]: 7
- HI titer (hemagglutinin inhibition assay) (n (HI titer = 2^n)) [21]: 6
- HI titer (hemagglutinin inhibition assay) (n (HI titer = 2^n)) [22]: 3
- HI titer (hemagglutinin inhibition assay) (n (HI titer = 2^n)) [23]: 4
- HI titer (hemagglutinin inhibition assay) (n (HI titer = 2^n)) [24]: 5
- HI titer (hemagglutinin inhibition assay) (n (HI titer = 2^n)) [25]: > 8
- HI titer (hemagglutinin inhibition assay) (n (HI titer = 2^n)) [26]: 3
- HI titer (hemagglutinin inhibition assay) (n (HI titer = 2^n)) [27]: 5
- HI titer (hemagglutinin inhibition assay) (n (HI titer = 2^n)) [28]: > 8
- HI titer (hemagglutinin inhibition assay) (n (HI titer = 2^n)) [29]: 7
- HI titer (hemagglutinin inhibition assay) (n (HI titer = 2^n)) [30]: > 8
- HI titer (hemagglutinin inhibition assay) (n (HI titer = 2^n)) [31]: 3
- HI titer (hemagglutinin inhibition assay) (n (HI titer = 2^n)) [32]: 4
- HI titer (hemagglutinin inhibition assay) (n (HI titer = 2^n)) [33]: 5
- HI titer (hemagglutinin inhibition assay) (n (HI titer = 2^n)) [34]: 5
- HI titer (hemagglutinin inhibition assay) (n (HI titer = 2^n)) [35]: 6
- HI titer (hemagglutinin inhibition assay) (n (HI titer = 2^n)) [36]: 7
- HI titer (hemagglutinin inhibition assay) (n (HI titer = 2^n)) [37]: 6
- HI titer (hemagglutinin inhibition assay) (n (HI titer = 2^n)) [38]: 5
- HI titer (hemagglutinin inhibition assay) (n (HI titer = 2^n)) [39]: > 8
- HI titer (hemagglutinin inhibition assay) (n (HI titer = 2^n)) [40]: 1
- Hamaglutinin inhibition titer [4]: 12800 titer
- Neutralization titer [4]: 12800 titer
- HI titer (hemagglutinin inhibition assay) (n (HI titer = 2^n)) [41]: 4
- Hamaglutinin inhibition titer [5]: 6400 titer
- Neutralization titer [5]: 12800 titer
- Hamaglutinin inhibition titer [6]: 12800 titer
- Neutralization titer [6]: 12800 titer
- Hamaglutinin inhibition titer [7]: 12800 titer
- Neutralization titer [7]: 12800 titer
- HI titer (hemagglutinin inhibition assay) (n (HI titer = 2^n)) [42]: 3
- Hamaglutinin inhibition titer [8]: 12800 titer
- Neutralization titer [8]: 12800 titer
- Hamaglutinin inhibition titer [9]: 12800 titer
- Neutralization titer [9]: 12800 titer
- Hamaglutinin inhibition titer [10]: 12800 titer
- Neutralization titer [10]: 12800 titer
- Hamaglutinin inhibition titer [11]: 12800 titer
- Neutralization titer [11]: 12800 titer
- Hamaglutinin inhibition titer [12]: 12800 titer
- Neutralization titer [12]: 12800 titer
- Hamaglutinin inhibition titer [13]: 6400 titer
- Neutralization titer [13]: 12800 titer
- Hamaglutinin inhibition titer [14]: 12800 titer
- Neutralization titer [14]: 12800 titer
- Hamaglutinin inhibition titer [15]: 12800 titer
- Neutralization titer [15]: 12800 titer
- Hamaglutinin inhibition titer [16]: 6400 titer
- Neutralization titer [16]: 12800 titer
- Hamaglutinin inhibition titer [17]: 12800 titer
- Neutralization titer [17]: 12800 titer
- Hamaglutinin inhibition titer [18]: 12800 titer
- Neutralization titer [18]: 12800 titer
